Patent publication US7479478B2, “Human parathyroid hormone modifications, preparation and use” (The General Hospital Corporation, priority 1998, dated 2009)
No end group written: not given here.

How the values were obtained:
Format in all cases: cell-based
human PTH-1 receptors [1] = biological target: T1, human PTH-1 receptors (Homo sapiens, UniProt Q03431); assay: PLC activation in COS-7 cells expressing human PTH-1 receptors; settings: up to 1000 nM
T1 construct: expressed in transfected cells
T1 sequence (Q03431 27-593): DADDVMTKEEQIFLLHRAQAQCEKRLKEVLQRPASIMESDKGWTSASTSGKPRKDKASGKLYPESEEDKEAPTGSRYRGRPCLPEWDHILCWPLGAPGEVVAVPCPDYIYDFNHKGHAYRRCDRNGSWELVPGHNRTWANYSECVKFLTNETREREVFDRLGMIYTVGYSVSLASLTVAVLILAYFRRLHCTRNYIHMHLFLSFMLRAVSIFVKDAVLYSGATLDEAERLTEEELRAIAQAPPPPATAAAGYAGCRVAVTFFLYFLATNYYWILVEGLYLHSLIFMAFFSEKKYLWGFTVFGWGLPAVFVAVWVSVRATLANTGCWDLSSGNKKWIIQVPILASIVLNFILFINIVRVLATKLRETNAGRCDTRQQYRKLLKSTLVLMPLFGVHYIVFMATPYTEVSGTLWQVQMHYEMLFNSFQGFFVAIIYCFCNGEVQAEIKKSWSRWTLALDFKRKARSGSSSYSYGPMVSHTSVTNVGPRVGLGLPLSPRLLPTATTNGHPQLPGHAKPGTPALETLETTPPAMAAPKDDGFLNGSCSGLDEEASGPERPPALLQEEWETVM
Method: (§1) HKRK B7 or EW5 cells (32), subclones of LLC-PKI renal epithelial cells that stably express human or rat PTH-1 receptors (950,000 and 320,000 receptors/cell, respectively), were maintained under 5% CO2 in air in Dulbecco's modified essential medium containing 7% fetal bovine serum (FBS) and 1% penicillin/streptomycin (GIBCO-BRL, Grand Island, N.Y.). HEK-293 and COS-7 cells were cultured similarly, except that 10% FBS was used in the medium. Cells were seeded into 24-well plates two days before assay at a density of 2-2.5×10^5 cells/well (HKRK B7 or EW 5 cells) or 6×10^5 cells/well (in 6-well plates) (HEK-293 cells). In experiments involving HEK-293 cells, DNA transfections were performed 24 hr after plating and inositol radiolabel was added 24 hr thereafter (see below). COS-7 cell transfections were performed as previously described (Gardella, T. J., et al., Endocrinology 132(5):2024-2030 (1993))
(§2) PLC was activated by PTH agonists in the presence of 30 mM LiCl at 37° C. for 30 min after 16 hr of labeling with [^3H]myo-inositol (3 uCi/ml) in serum-free medium containing 0.1% bovine serum albumin. The reactions were stopped by rapid aspiration and addition of cold 5% TCA. Water-soluble radiolabeled inositol trisphosphate (IP3) was isolated after ether extraction by ion-exchange chromatography (Guo, J., et al., Endocrinology 136(9):3884-3891 (1995)). […]

human PTH-1 receptors [2] = biological target: T1, human PTH-1 receptors; assay: PLC activation (IP3 formation) in HKRK B7 cells; settings: HKRK B7 cells; up to 1000 nM or 10 μM
Method: as §1
PLC was activated by PTH agonists in the presence of 30 mM LiCl at 37° C. for 30 min after 16 hr of labeling with [^3H]myo-inositol (3 uCi/ml) in serum-free medium containing 0.1% bovine serum albumin. The reactions were stopped by rapid aspiration and addition of cold 5% TCA. Water-soluble radiolabeled inositol trisphosphate (IP3) was isolated after ether extraction by ion-exchange chromatography (Guo, J., et al., Endocrinology 136(9):3884-3891 (1995)). In experiments involving HEK 293 cells, cells previously transfected with human PTHR cDNA (in the pcDNA1 expression vector HKRK) using Lipofectamine (Gibco BRL) were labeled with [^3H]myo-inositol and assayed as described above, except that total water-soluble [^3H]inositol polyphosphates were collected as a single fraction from the ion-exchange columns.

rat PTH-1 receptors = biological target: T2, rat PTH-1 receptors (Rattus norvegicus, UniProt P25961); assay: PLC activation in COS-7 cells expressing rat PTH-1 receptors; settings: up to 1000 nM
T2 construct: expressed in transfected cells
T2 sequence (P25961 27-591): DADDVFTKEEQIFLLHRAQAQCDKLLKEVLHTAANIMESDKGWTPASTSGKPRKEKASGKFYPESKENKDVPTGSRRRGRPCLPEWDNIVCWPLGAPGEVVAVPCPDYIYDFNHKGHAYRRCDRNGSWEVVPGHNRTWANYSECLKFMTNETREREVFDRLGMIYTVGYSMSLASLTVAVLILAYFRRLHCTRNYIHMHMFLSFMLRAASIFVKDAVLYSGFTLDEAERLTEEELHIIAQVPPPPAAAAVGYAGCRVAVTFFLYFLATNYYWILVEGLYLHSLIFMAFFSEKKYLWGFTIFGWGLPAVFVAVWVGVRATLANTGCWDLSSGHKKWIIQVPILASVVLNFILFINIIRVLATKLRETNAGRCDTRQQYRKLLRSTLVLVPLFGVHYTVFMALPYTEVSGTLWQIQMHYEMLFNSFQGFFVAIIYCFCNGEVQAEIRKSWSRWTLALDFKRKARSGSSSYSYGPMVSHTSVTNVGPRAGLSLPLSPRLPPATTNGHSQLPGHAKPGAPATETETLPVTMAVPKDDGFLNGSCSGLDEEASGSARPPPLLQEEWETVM
Method: as §1, §2

PLC activation, result in words (human PTH-1 receptors [1]): did not activate PLC | PLC activation (IP3 formation), result in words (human PTH-1 receptors [2]): did not activate PLC | PLC activation, result in words (rat PTH-1 receptors): did not activate PLC
Substance: Human PTH-(3-34): N-truncated human PTH peptide lacking Ser^1-Val^2 (SEIQLMHNLGKHLNSMERVEWLRKKLQDVHNF-NH2; UniProt P01270 34-65, looked up, fragment)
